The values below come from ChEMBL document CHEMBL5143569.

Substrate in series [1]: CC1(CN)CCN(c2cnc(Sc3cccc(Cl)c3Cl)c(N)n2)CC1
The following applies: Homo sapiens; filed as negative allosteric modulator; dose 0.08 µM.
Description: Non-competitive inhibition of wild-type human SHP2 (1 to 535 residues) using DiFMUP as substrate assessed as Km at 0.08 uM measured by Lineweaver-Burk plot analysis

Substrate in series [2]: CC1(CN)CCN(c2cnc(Sc3cccc(Cl)c3Cl)c(N)n2)CC1
The following applies: Homo sapiens; filed as negative allosteric modulator; dose 0.032 µM.
Description: Non-competitive inhibition of wild-type human SHP2 (1 to 535 residues) using DiFMUP as substrate assessed as Km at 0.032 uM measured by Lineweaver-Burk plot analysis

Substrate in series [3]: CC1(CN)CCN(c2cnc(Sc3cccc(Cl)c3Cl)c(N)n2)CC1
To be noted: Homo sapiens; filed as negative allosteric modulator; dose 0.2 µM.

B1: Tyrosine-protein phosphatase non-receptor type 11 (Homo sapiens), Q06124 (protein)
chain: MTSRRWFHPNITGVEAENLLLTRGVDGSFLARPSKSNPGDFTLSVRRNGAVTHIKIQNTGDYYDLYGGEKFATLAELVQYYMEHHGQLKEKNGDVIELKYPLNCADPTSERWFHGHLSGKEAEKLLTEKGKHGSFLVRESQSHPGDFVLSVRTGDDKGESNDGKSKVTHVMIRCQELKYDVGGGERFDSLTDLVEHYKKNPMVETLGTVLQLKQPLNTTRINAAEIESRVRELSKLAETTDKVKQGFWEEFETLQQQECKLLYSRKEGQRQENKNKNRYKNILPFDHTRVVLHDGDPNEPVSDYINANIIMPEFETKCNNSKPKKSYIATQGCLQNTVNDFWRMVFQENSRVIVMTTKEVERGKSKCVKYWPDEYALKEYGVMRVRNVKESAAHDYTLRELKLSKVGQGNTERTVWQYHFRTWPDHGVPSDPGGVLDFLEEVHHKQESIMDAGPVVVHCSAGIGRTGTFIVIDILIDIIREKGVDCDIDVPKTIQMVRSQRSGMVQTEAQYRFIYMAVQHYIETLQRRIEEEQKSKRKGHEYTNIKYSLADQTSGDQSPLPPCTPTPPCAEMREDSARVYENVGLMQQQKSFR
One may read the Km as the concentration of substrate that gives half-maximal velocity. As for B1, the Km in series [1] amounted to 103 µM; in series [2], 95.4 µM; in series [3] it was 142 µM.
